Amyloid nucleation score data for 131 substances are collected here from the supplement of paper PMC12042874.

± gives the uncertainty stated by the source.

The data set can be described thus: amyloid nucleation score (Sup35N fusion, yeast selection) (log enrichment); library NNK3; higher = more nucleation; inactive = no reads after selection. The procedure, abridged:
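After 24 hours of induction with 100 μM copper sulfate, psi-negative yeast expressing peptides of 20 random codons fused to Sup35N were grown for 7 days at 30°C on medium lacking adenine and uracil. Input and output plasmid inserts were sequenced with Illumina, and sequences with under 100 input reads were discarded. Scores for nucleation are the DiMSum log enrichment of output over input reads, centred on the mode score of non-aggregating sequences.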
On to KNREVANYNDMYSDPILG, for which the amyloid nucleation score entry was “inactive”.

For the substance SIGVFRYFVLVLHYWYGISS, the amyloid nucleation score entry was “inactive”.

HVVKSRSGLIMVWRPLL registered an amyloid nucleation score of -0.65 ± 1.1.

In the case of FVLVHSFLECHYIHVTTERL, the amyloid nucleation score result was “inactive”.

Consider IMVKLSIIIVYC, for which the amyloid nucleation score was determined as 1.76 ± 0.083.

As for MYIVRRKTICET, the amyloid nucleation score entry is “inactive”.

With CQRYQALSNCPYSATWGSDT, the amyloid nucleation score entry is “inactive”.

Regarding LAPHLSTIMCIEHNS, the amyloid nucleation score entry is “inactive”.

On to FFNRGKVAETGFIWSMVVV, for which the amyloid nucleation score entry was “inactive”.

For the substance FLFIHKLTCLSLVKWTGFLV, the amyloid nucleation score result was “inactive”.

With QSFLDTSPHLDHVVNNSIKH, the amyloid nucleation score entry was “inactive”.

Consider VLGSRVKGDYCRCLEMECIW, for which the amyloid nucleation score entry is “inactive”.

Regarding HYYVTVTHGS, the amyloid nucleation score result was “inactive”.

PAVPLQSNLRRETTFRAGCL: the amyloid nucleation score result is “inactive”.

As for CPTVMAYGKTGG, the amyloid nucleation score is 0.934 ± 0.21.

In the case of SVERILLYGRCCFVRRA, the amyloid nucleation score was determined as 0.403 ± 0.2.

For DGDYSWGFVIRCHGPRSWSR, the amyloid nucleation score entry was “inactive”.

For the substance HSVIIAAMLSEISVSGLISG, the amyloid nucleation score result is “inactive”.

For the substance TGYHGHTPFSYDQYEFHLRV, the amyloid nucleation score result is “inactive”.

Take VLLSNNRILYETFL: the amyloid nucleation score result is “inactive”.

VVRYHSMYKDCYFLKRFVIL: the amyloid nucleation score entry was “inactive”.

With NLSLLSLVSFEVEVIQCTMR, the amyloid nucleation score entry is “inactive”.

Consider PYGKFRLNPLD, for which the amyloid nucleation score was found to be 0.652 ± 0.17.

For NFTGSCVPVIRQMASCFSSF, the amyloid nucleation score entry is “inactive”.

Consider RSLCQQYQRFSSLRKVIGLS, for which the amyloid nucleation score result is “inactive”.

With RFTCKYLPTLLTGVIRGPSP, the amyloid nucleation score entry is “inactive”.

In the case of NKRGNCVEKDDCFVMYEWNM, the amyloid nucleation score result is “inactive”.

For the substance CCFHLFTYCKGKARYTLWSV, the amyloid nucleation score entry is “inactive”.

Consider SSSRCITLLVSIMVPISATC, for which the amyloid nucleation score result is “inactive”.

Substance WNVELSNLVEIMGRCACYSS displayed an amyloid nucleation score of 0.406 ± 0.35.

Take HFQMRAERDESSNRPYSSFG: the amyloid nucleation score result was “inactive”.

SYRASSGCHWREPHGLSDVR displayed an amyloid nucleation score of 0.897 ± 0.21.

Consider DKTCMVKPT, for which the amyloid nucleation score entry was “inactive”.

As to LAVVNYQSFTNVEWVGNRIK, the amyloid nucleation score result was “inactive”.

Consider LLRIPGF, for which the amyloid nucleation score result was “inactive”.

Turning to GSRLSIQTFMTS, the amyloid nucleation score result is “inactive”.

DRIDRDGRRIECQWGRGGVM: the amyloid nucleation score entry is “inactive”.

As to TRWRSLSEGPSVGLEITPRF, the amyloid nucleation score result is “inactive”.

On to ASNYDYVYMPTWDKDRFSRY, for which the amyloid nucleation score result was “inactive”.

Turning to GIKNMRSISKFGWVFLIYTV, the amyloid nucleation score entry is “inactive”.

In turn, ILQKQVTTRLSINSENLHL displayed an amyloid nucleation score of 0.256 ± 0.21.

Turning to RGIPDLVIY, the amyloid nucleation score entry was “inactive”.

In turn, YVTHMQLGYLSVMCMEVKRG yielded an amyloid nucleation score of 1.35 ± 0.085.

Turning to TQESRDIGFTAPRGRICTQG, the amyloid nucleation score result was “inactive”.

For the substance ELTEDLVDL, the amyloid nucleation score entry is “inactive”.

On to VVATILLVHPPVKHWSCDLM, for which the amyloid nucleation score was -0.859 ± 0.73.

Take IKIMFLTAVYVMVGLQIIAT: the amyloid nucleation score entry was “inactive”.

Consider STVVNSYMNFCACKGSNMAC, for which the amyloid nucleation score worked out at 2.7 ± 0.068.

Consider RPFSPVVLMVYGKKRRTWTR, for which the amyloid nucleation score entry was “inactive”.

In the case of MMHILNGRSEVAPFYSTPIS, the amyloid nucleation score entry was “inactive”.

For IMVCKWTSPTSTMPHDDLGC, the amyloid nucleation score result is “inactive”.

On to MAFRETRWNFLLNKV, for which the amyloid nucleation score result is “inactive”.

MFMMTKRNCNSTCCHYKFRV returned an amyloid nucleation score of 0.656 ± 0.16.

The substance WNFGFGVWRFTAGG came in with an amyloid nucleation score of 1.33 ± 0.067.

Turning to NCTNFALVSNLASTRTIADW, the amyloid nucleation score result was “inactive”.

On to PSVFVRVLEKNRDLMMRTAS, for which the amyloid nucleation score entry is “inactive”.

Take MKYRTALHTF: the amyloid nucleation score is -0.961 ± 1.9.

As for LFYAVSFQRYQANVFVVRGD, the amyloid nucleation score result was “inactive”.

For the substance FGSHYSFRIQKVFFAVQRSP, the amyloid nucleation score was 2.41 ± 0.082.

As for SCGMERRLIIYSSSHNNILY, the amyloid nucleation score was 0.178 ± 0.88.

Turning to LWSYITK, the amyloid nucleation score result is “inactive”.

With NLRWV, the amyloid nucleation score is 0.478 ± 0.25.

As for SFFCN, the amyloid nucleation score entry is “inactive”.

As to HVVGQDIRV, the amyloid nucleation score result was “inactive”.

WHTSSQVSEGLEHAYVCKFE: the amyloid nucleation score result is “inactive”.

Turning to VHLNCCTVLKEVRLFT, the amyloid nucleation score amounted to 0.78 ± 0.26.

For ETAYSASVRDT, the amyloid nucleation score entry is “inactive”.

Regarding ASPTQVNYFTLVKCMVLRTT, the amyloid nucleation score result was “inactive”.

As for IRNGYSRICRIQRLGSMGM, the amyloid nucleation score entry is “inactive”.

For DLGMLERC, the amyloid nucleation score result is “inactive”.

Consider NYDKCSDPRRRRRLFFHLYD, for which the amyloid nucleation score result was “inactive”.

On to FAFSNLTKPVFKI, for which the amyloid nucleation score entry is “inactive”.

With NFYRCGVWHLNWYEYDVLRL, the amyloid nucleation score entry is “inactive”.

On to HTVLILVCAFKNAG, for which the amyloid nucleation score result is “inactive”.

In the case of KNTGMGDTVSFRLVSAFEHI, the amyloid nucleation score result was “inactive”.

As to FSPVSQYWMKGFTYTGNRAR, the amyloid nucleation score result was “inactive”.

For the substance AVISNRFYEEKLYDATYLRL, the amyloid nucleation score result is “inactive”.

Turning to KKMLLWHI, the amyloid nucleation score entry is “inactive”.

Consider WILLCIRRRMFCRGMCTINN, for which the amyloid nucleation score result is “inactive”.

Take IWTLS: the amyloid nucleation score entry was “inactive”.

Regarding DLWHPMSY, the amyloid nucleation score was -0.466 ± 0.84.

On to ESVRGRLFRV, for which the amyloid nucleation score result was “inactive”.

On to FWKCWAVPDVCFYVWRSGCF, for which the amyloid nucleation score result was “inactive”.

Take IMKCICVYVFINCHKWDVHA: the amyloid nucleation score result was “inactive”.

Take GSICYHGWTFKGKVKILNGI: the amyloid nucleation score entry is “inactive”.

As to MSRGCCINLTLQIRVFWNTM, the amyloid nucleation score entry is “inactive”.

Regarding PSCSRSVTMWKSRNLFIQLA, the amyloid nucleation score entry was “inactive”.

Turning to AIVIRLNSVYYYGCGWLLNR, the amyloid nucleation score result was “inactive”.

LGIAPDHMSCSGVNRKCGYS: the amyloid nucleation score entry was “inactive”.

LHPCEYALM registered an amyloid nucleation score of -1.4 ± 2.5.

Take VFSDHVLSF: the amyloid nucleation score result is “inactive”.

Regarding FSDRRSINPELEF, the amyloid nucleation score result is “inactive”.

In the case of HELFRTSHRLRCYFNPHSHI, the amyloid nucleation score result was “inactive”.

Take AYVLARFLEDFFMILLWDRW: the amyloid nucleation score entry is “inactive”.

For the substance MHNKVGPYTD, the amyloid nucleation score entry is “inactive”.

As for EGPGDEIFVSG, the amyloid nucleation score entry is “inactive”.

For WGEPIVLDLSSFFDLVDRHG, the amyloid nucleation score entry was “inactive”.

On to RWLLMYLLLRSTATN, for which the amyloid nucleation score entry is “inactive”.

For the substance ILWFMDGMIRSRGVPLGDGC, the amyloid nucleation score result was “inactive”.

Consider YKYDRFWKVFHQGRTLVAGG, for which the amyloid nucleation score entry is “inactive”.

For FELFKKGRSI, the amyloid nucleation score amounted to 0.898 ± 0.23.

For the substance FTQSTCSSHSVLFLMDVTRG, the amyloid nucleation score result is “inactive”.

In the case of HLYDKSMNVGSRSARAELSM, the amyloid nucleation score entry is “inactive”.

For KRLAKWGTMYLV, the amyloid nucleation score result was “inactive”.

Turning to FMVSRMYEWCVCSVQCLMLF, the amyloid nucleation score entry was “inactive”.

Take MGKKSAHLSYRICVQCGKDG: the amyloid nucleation score entry was “inactive”.

ILRHKCDEQPVRVSGHCFA: the amyloid nucleation score result was “inactive”.

For LSRFD, the amyloid nucleation score entry was “inactive”.

ALSHKVAVYVYC: the amyloid nucleation score result is “inactive”.

For the substance YIFVT, the amyloid nucleation score result is “inactive”.

Consider MWFAKAGTCNGSWLDMLSGW, for which the amyloid nucleation score result was “inactive”.

For LGSCCLLYYYAKTVMNMFSK, the amyloid nucleation score result is “inactive”.

The substance VFLVTSRVNIRCVVLHIINE showed an amyloid nucleation score of 1.08 ± 0.11.

On to HMSSLITVS, for which the amyloid nucleation score result was “inactive”.

As to GAHFWKNGVGRWLPRNC, the amyloid nucleation score result is “inactive”.

AGLLDMARSVDCSGLGYGFF had an amyloid nucleation score of -0.82 ± 1.

On to SFRDPHLTHSSVDCRTVYHI, for which the amyloid nucleation score result is “inactive”.

Consider PNCVISSLTFRWVIFSECEP, for which the amyloid nucleation score result was “inactive”.

On to CKMRYEDESWFKWVVDLSFN, for which the amyloid nucleation score result is “inactive”.

Turning to FCGNLEATYRSRFRSNAHSA, the amyloid nucleation score came out at 0.698 ± 0.3.

As for SFYLVYRGIFDISLTEFVL, the amyloid nucleation score result is “inactive”.

Turning to SIFIYDVPIVSRWRIFGKQS, the amyloid nucleation score result was “inactive”.

As for KNYNNYMVSSNNLLVDIWLV, the amyloid nucleation score was found to be 1.47 ± 0.12.

As to IVWASTWTCCTN, the amyloid nucleation score amounted to 2.73 ± 0.049.

HICIMNMLRFRCIWIPIFYM: the amyloid nucleation score result is “inactive”.

Turning to CSNAHFWVRILKECSLRGSG, the amyloid nucleation score came out at 0.587 ± 0.41.

The substance YSVIMPCSNLNWVDMNLTEY came in with an amyloid nucleation score of -0.169 ± 0.29.

In the case of YLMYSVESVRWTLIE, the amyloid nucleation score result is “inactive”.

In the case of VGNSHASIHPCKVICSLACD, the amyloid nucleation score entry is “inactive”.

As for DSSLKMGCKGWNVYVGATLV, the amyloid nucleation score was found to be 0.866 ± 0.16.

On to TPLDDLMCQLCSGYPLVILP, for which the amyloid nucleation score entry is “inactive”.
